Test results from the supplement of paper PMC7125110.
± gives the standard error. Fewer inactive variants are shown than the library holds.

B1: glmS ribozyme (parent)
chain: AUAAAAGCGCCAGAACUACAGAAAUGUAGUUGACGAGGAGGAGGUUUAUCGAAUUUUCGGCGGAUGCCUCCAAA

Key:
Conditions in all cases: with glucosamine-6-phosphate
glucosamine-6-phosphate [1] = variants of: B1; assay: self-cleavage kobs at 40 uM GlcN6P; higher = faster cleavage; RNA array
Outline: (§1)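 Ribozyme variants carrying barcodes were transcribed in situ on sequenced MiSeq chips by E. coli RNA polymerase and tracked at 37 °C with a hybridised Cy3 probe. They were exposed to 40 μM to 10 mM glucosamine-6-phosphate in HEPES/KCl/Mg(OAc)2 buffer. kobs came from exponential decay fits of normalised per-tile medians, and kcat and KM from weighted Michaelis–Menten fits.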

glucosamine-6-phosphate [2] = variants of: B1; assay: self-cleavage kobs at 160 uM GlcN6P; higher = faster cleavage; RNA array
Outline: as §1

glucosamine-6-phosphate [3] = variants of: B1; assay: self-cleavage kobs at 640 uM GlcN6P; higher = faster cleavage; RNA array
Outline: as §1

glucosamine-6-phosphate [4] = variants of: B1; assay: self-cleavage kobs at 2500 uM GlcN6P; higher = faster cleavage; RNA array
Outline: as §1

glucosamine-6-phosphate [5] = variants of: B1; assay: self-cleavage kobs at 10000 uM GlcN6P; higher = faster cleavage; RNA array
Outline: as §1

| Variant | self-cleavage kobs at 40 uM GlcN6P (glucosamine-6-phosphate [1]) [s⁻¹] | self-cleavage kobs at 160 uM GlcN6P (glucosamine-6-phosphate [2]) [s⁻¹] | self-cleavage kobs at 640 uM GlcN6P (glucosamine-6-phosphate [3]) [s⁻¹] | self-cleavage kobs at 2500 uM GlcN6P (glucosamine-6-phosphate [4]) [s⁻¹] | self-cleavage kobs at 10000 uM GlcN6P (glucosamine-6-phosphate [5]) [s⁻¹] |
| --- | --- | --- | --- | --- | --- |
| AUAAAAGCGCCAGAACUACAGAAAUGUAGUUGACAAGGAGAAGGUUUGUCGAAUUUUCGGUGGAUGCCUCCAAA [G35A G41A A48G C61U] | < 1e-05 |  |  |  |  |
| AUAAAGGCGCCAGGACUACAGAAAUGUACUUGACGAGAGAGUGGUUUAUCGAACUAUCGCCGGAUGCCUCCAAA [A6G A14G G29C G38A A39G G40A A42U U54C U56A G60C] | < 1e-05 |  |  |  |  |
| AUAAAAUCGCCAGAACUACAGAAAUGUAGUUGGCGAGGAGGAGGUUUAUCGAAUUUUCGGCGGAUGCCUCCAAA [G7U A33G] | < 1e-05 | < 1e-05 | < 1e-05 | < 1e-05 |  |
| AUAAAAGCGCCAGAUCUACAGAAAUGUAGUUGACGAGGAGGAGGUUUAUCGCAUUUUCAGCGGAUGCCUACAAA [A15U A52C G59A C70A] | < 1e-05 |  |  |  |  |
| AUAAAAGUGCCAGAACUACAGAAAUGUAGUUGACGAGGAGGAGGUUUAUAAAAUUUUCGGCGGAUGCCGCCAAA [C8U C50A G51A U69G] | 0.00046 ± 0.00016 |  |  |  | 0.000709 ± 0.00014 |
| AUAAAAGCUCCUGAACUACAGAAAUGUAGUUGGCGAGGAUGAGGUUUAUCGAAUUUUCGGCGGAUGCCUCCAAA [G9U A12U A33G G40U] | < 1e-05 |  |  |  |  |
| AUAAAAGCGCCUGAACUACAGAAAUGUAGUUGACUAGGAGGAGGUUUACCGAAUUUUCGGCGGAUGCCUCCAAA [A12U G35U U49C] | < 1e-05 |  |  | < 1e-05 |  |
| AUAAAAGCGCCUGAACUACAGAAAUGUAGUUGACGAGGUGGAGGUUUAUCGAAUUUUCGGCGGAUGCCUCUAAA [A12U A39U C71U] | 0.000517 ± 0.00011 |  |  |  | 0.0493 ± 0.014 |
| AUAAAAGCGCCAAAACUACAGAAAUGUAGUUGACGAGGAGGAGGUUUAUCGAAUUUUCCGCGGAUGCCUCCAAA [G13A G59C] | < 1e-05 | < 1e-05 |  |  | < 1e-05 |
| AUAAAAGCGCCAGAACUACAGAAAUGUAGUUGACGAGGAGGAAGUUUAUCGAAUUUUCGGCGGAUGCUUCCAAA [G43A C68U] | 0.00208 ± 0.00023 | 0.00432 ± 0.00092 | 0.0114 ± 0.0021 | 0.00869 ± 0.0023 | 0.041 ± 0.0092 |
| AUAAAGGCGCCAGAACUACAGAAAUGUAGUUGACGAGGAGGAGGUUUUUCGAAUUUUCGGCGGAUUCCCCCAAA [A6G A48U G66U U69C] | < 1e-05 |  |  |  | < 1e-05 |
| AUAAAAGCAGCAUAACUACAGAAAUGUAGUUGACGAGGAGGAGGUUUUUCUAAUUUUCGGCGGAUCCCUCCAAA [G9A C10G G13U A48U G51U G66C] | < 1e-05 |  |  |  |  |
| AUAAAAGCGCCAGAACUACAGAAAUGUAGUUGACGAGGAGGAGGUUUCUCGAAUUUUCGGCGGGUGCCUCCAAA [A48C A64G] | < 1e-05 | < 1e-05 |  |  | 6.31e-05 ± 1.3e-05 |
| AUAAAAGCGCCAGAACUACAGAAAUGUAGUUGUCGAGGAGGAGGUUUAUCGAAUUAUCGGCGGAUGCCUCAAAA [A33U U56A C71A] | < 1e-05 |  |  |  |  |
| AUAAAAGCGCCAGAACUACAGAAAUGUAGUUGACGAGGAGGAGUUUUGUCGAAUUUUCGGCGGAUGCCUCCAAA [G44U A48G] | < 1e-05 | < 1e-05 | < 1e-05 | < 1e-05 | < 1e-05 |
| AUAAAAGCGCCGGAACUACAGAAAUGUAGUUGACGAGAAGGAGGUUUAUCGAAUUUUCGGCGGAUUCCUCCAAA [A12G G38A G66U] | < 1e-05 | < 1e-05 | < 1e-05 |  | < 1e-05 |

| Variant | self-cleavage kobs at 40 uM GlcN6P (glucosamine-6-phosphate [1]) [s⁻¹] | self-cleavage kobs at 160 uM GlcN6P (glucosamine-6-phosphate [2]) [s⁻¹] | self-cleavage kobs at 640 uM GlcN6P (glucosamine-6-phosphate [3]) [s⁻¹] | self-cleavage kobs at 2500 uM GlcN6P (glucosamine-6-phosphate [4]) [s⁻¹] | self-cleavage kobs at 10000 uM GlcN6P (glucosamine-6-phosphate [5]) [s⁻¹] |
| --- | --- | --- | --- | --- | --- |
| AUAAAAGCUCCAAAACUACAGAAAUGUAGUUGACGUGAAGGAGGUUUAUCGAAUUUUCGGCGGAGGCCUCCAAA [G9U G13A A36U G38A U65G] | < 1e-05 |  |  |  | < 1e-05 |
| AUAAAAGCGCCAGAACUACAGAAAUGUAGUUGACGAGGAUGAGGUUUACCGAAUUUUCGGCGGAUGCCUCCAAA [G40U U49C] | < 1e-05 | < 1e-05 | < 1e-05 |  | < 1e-05 |
| AUAAAAGCGCCAGAACUACAGAAAUGUAGAUGACGAGGAGGAGGUUUACCGAAUUUUCGGCGGAUGCCUCCAAA [U30A U49C] | < 1e-05 | < 1e-05 | < 1e-05 | < 1e-05 | < 1e-05 |
| AUAAAAGCGCCAGAACUACAGAAAUGUAGUUGACGAGGACGAGGUUUAUCGAAUUUUCGGCGGAUGACUCAAAA [G40C C67A C71A] | 3.18e-05 ± 1.4e-05 |  |  |  | 0.000726 ± 0.00011 |
| AUAAAAGAGCCAGAACUACAGAAAUGUAGUAGACGAGGAGGAGGUUUAUGGAUUUUUCGGCGGAUGCCUACAAA [C8A U31A C50G A53U C70A] | 0.000306 ± 7.3e-05 |  |  |  | 0.000515 ± 0.00016 |
| AUAAAAGCGCCAGAAAUACAGAAAUGUAGUUGAUGAGGAGGAGGUUUAUCGAAUUUUCGGCGGAUGCCUCCAAA [C16A C34U] | < 1e-05 | < 1e-05 | < 1e-05 | < 1e-05 |  |
| AUAAAAGCGCCAGUACUACAGAAAUGUAGUUGACGAGGAGGAGGUUUAUCGAAUGUUUGGCGGAUUGCUCCAAA [A14U U55G C58U G66U C67G] | 0.00272 ± 0.001 |  |  |  |  |
| AUAAAAGCGACAGAACUACAGAAAUGUAGUUGACGAGGAGGAGGUUUAUCGAAUUUUCGGUGGAUGCCUCCAAA [C10A C61U] | < 1e-05 |  |  | < 1e-05 |  |
| AUAAAAGCGCCAGAACUACAGAAAUGUAUCUGACGAGGAGGAGGUUUAUCGAAUUUUCGGCGGAUGCCUCCAAA [G29U U30C] | < 1e-05 |  | < 1e-05 | < 1e-05 |  |
| AUAAAAGCGCCAGAACUACAGAAAUGUAGUUAACCAGGAGGAGGUUUAUCGAAUUUUCGGCGGAUGGCUCCAAA [G32A G35C C67G] | < 1e-05 |  |  |  | < 1e-05 |
| AUAAAAGCGCCAGCACUACAGAAAUGUAGUUGACUAGGAGGAGGUUUAUCGAAUUUUCGGCGGAUGCCUUCAAA [A14C G35U C70U] | < 1e-05 |  |  |  | < 1e-05 |
| AUAAAAGCUCCAGAACUACAGAAAUGUAGUUGACGAGGAGGAGGUUUAUCGAAUUUUCGUCGGAUGCCUCGAAA [G9U G60U C71G] | < 1e-05 |  |  |  |  |
| AUAAAAGCGCCGGAACUACAGAAAUGUAGUUGACGGGCAGGAGGUUUAUCGAAUUUUCGGCGGAUGCCUCCAAA [A12G A36G G38C] | < 1e-05 |  |  |  |  |
| AUAAAAGCGCCAGAACUACAGAAAUGUAGCUGACGAGGAGGAGGUUUAUAGAAUUUUCGGCGGAAGCCGCCAAA [U30C C50A U65A U69G] | 4.39e-05 ± 1.7e-05 |  | 0.000207 ± 5.3e-05 | 5.84e-05 ± 2.3e-05 | 3.19e-05 ± 1.6e-05 |
| AUAAAAGCGCCAGAACUACAGAAAUGUAGUUGACGAAGAGGAGGUUUAUCGAAUUUUCGGUGGAUGCCUCCAAA [G37A C61U] | < 1e-05 |  | < 1e-05 | < 1e-05 |  |
